Experimental findings from patent publication US20080085280A1 are described below.

For assay [1], the target named is wild-type human FcαRI (human) (UniProt P24071). In words: cell-based or functional assay.
Assay [2] has as its target FcαRIR209L/γ chimeric receptor (human) (UniProt P24071). Nature of the assay: cell-based or functional assay.

In assay [1], “anti-FcαRI Fab A77 (Fab fragment of anti-FcαRI mAb, IgG1κ, clone A77)” yielded a Fab concentration giving maximal inhibition of degranulation of 1 to 10 µg/mL; an inhibition of FcεRI-induced degranulation, 10 µg/ml Fab above 50%; an inhibition of IgE-mediated degranulation (β-hexosaminidase release), 10 µg/ml Fab of 74%; an inhibition of IgE-mediated degranulation against irrelevant control Fab of 72%. The substance further displayed an inhibition of IgG-mediated phagocytosis of E. coli by human blood monocytes in assay [1] above 80%. In addition, the inhibition of IgE-mediated degranulation against irrelevant control Fab in assay [2] worked out at 91%.
